Among the data in article PMC9015148 (2022) are Kd values, retold here.

One assay deals with RSV_FixBB (UniProt P0AFA2). The assay is described as follows: SPR. Background: SPR reads the build-up and loss of mass on a sensor chip optically.
In a further assay the target is Surf_03 (UniProt P0AFA2). Briefly: SPR.

The Kd is a measure of binding affinity in units of concentration.

B1: D25 Fab (Fab, V domains shown)
VH: QVQLVQSGAEVKKPGSSVMVSCQASGGPLRNYIINWLRQAPGQGPEWMGGIIPVLGTVHYAPKFQGRVTITADESTDTAYIHLISLRSEDTAMYYCATETALVVSTTYLPHYFDNWGQGTLVTVSS
VL: DIQMTQSPSSLSAAVGDRVTITCQASQDIVNYLNWYQQKPGKAPKLLIYVASNLETGVPSRFSGSGSGTDFSLTISSLQPEDVATYYCQQYDNLPLTFGGGTKVEIK
In the case of B1, the values for the Kd with RSV_FixBB and with Surf_03 were 99 nM and 360 nM, respectively.
